The experiment relates to Hsp72–DnaJB4 complex. Kind of experiment: Luciferase refolding by Hsp72/DnaJB4 in the presence of TPR cochaperones. The class given is biochemical. The following applies: 1 μM Hsp72, 100 nM denatured luciferase, 120 nM DnaJB4; CHIP titration or 10 μM TPR protein; 1 h at 37 °C. How it is done: Experiments were performed as described ([14]). Briefly, Renilla luciferase (Promega) was denatured in 8 M GdnHCl for 2 h at room temperature. Hsp72 (1 μM) and denatured luciferase (100 nM) were diluted into a working concentration in buffer containing an ATP regenerating system (23 mM Hepes, 120 mM KAc, 1.2 mM MgAc, 15 mM DTT, 61 mM creatine phosphate, 35 units/ml creatine kinase, and 5 ng/μl bovine serum albumin, pH 7.4). A titration series of DnaJB4 was added, and the reaction was initiated with the addition of 2.5 mM ATP. For competition assays with DnaJB4, complexes of Hsp72 (1 μM), denatured luciferase (100 nM), and DnaJB4 (120 nM) were incubated with either a titration of CHIP or 10 μM of indicated TPR protein. In all cases, the assay was allowed to incubate for 1 h at 37 °C in white, 96-well flat-bottom plates (Corning 3990). Luminescence was measured using the SteadyGlo luminescence reagent (Promega), and percent refolded luciferase was calculated using a standard curve of 100 to 0 nM native luciferase.

B1: DnaJC7: TPR cochaperone that also contains a J-domain (protein, UniProt Q99615 2-494, looked up)
DnaJ homolog subfamily C …: AAAAECDVVMAATEPELLDDQEAKREAETFKEQGNAYYAKKDYNEAYNYYTKAIDMCPKNASYYGNRAATLMMLGRFREALGDAQQSVRLDDSFVRGHLREGKCHLSLGNAMAACRSFQRALELDHKNAQAQQEFKNANAVMEYEKIAETDFEKRDFRKVVFCMDRALEFAPACHRFKILKAECLAMLGRYPEAQSVASDILRMDSTNADALYVRGLCLYYEDCIEKAVQFFVQALRMAPDHEKACIACRNAKALKAKKEDGNKAFKEGNYKLAYELYTEALGIDPNNIKTNAKLYCNRGTVNSKLRKLDDAIEDCTNAVKLDDTYIKAYLRRAQCYMDTEQYEEAVRDYEKVYQTEKTKEHKQLLKNAQLELKKSKRKDYYKILGVDKNASEDEIKKAYRKRALMHHPDRHSGASAEVQKEEEKKFKEVGEAFTILSDPKKKTRYDSGQDLDEEGMNMGDFDPNNIFKAFFGGPGGFSFEASGPGNFFFQFG
Regarding B1, the “effect on client (luciferase) refolding by Hsp72–DnaJB4” value is “strongly promoted luciferase refolding”.

For the origin of these results see publication PMC8913300, “Two distinct classes of cochaperones compete for the EEVD motif in heat shock protein 70 to tune its chaperone activities” (The Journal of Biological Chemistry, 2022).
